Assay results taken from US20150322137A1 (EVEC, published 2015).

Tests used:
Test in all cases: cell-based or functional assay
[1] = target: T1, F protein of human metapneumovirus strain JPS02-76 (type B1), on infectious virus (human metapneumovirus, strain JPS02-76 …, UniProt Q6WB98 19-539)
[2] = target: T2, F protein of human metapneumovirus strain JPS05-21 (type B2), on infectious virus (human metapneumovirus, strain JPS05-21 …)
[3] = target: T3, F protein of human metapneumovirus strain JPS03-180 (type A1), on infectious virus (human metapneumovirus, strain JPS03-180 …)
[4] = target: T2, F protein of human metapneumovirus …; remark: listed apart in the source
[5] = target: T3, F protein of human metapneumovirus …; remark: listed apart in the source
[6] = target: T4, F protein of human metapneumovirus strain JPS03-178 (type A2), on infectious virus (human metapneumovirus, strain JPS03-178 …)
[7] = target: T1, F protein of human metapneumovirus …; remark: listed apart in the source
[8] = target: T2, F protein of human metapneumovirus …; remark: listed apart in the source
[9] = target: T3, F protein of human metapneumovirus …; remark: listed apart in the source
[10] = target: T4, F protein of human metapneumovirus …; remark: listed apart in the source
[11] = target: T1, F protein of human metapneumovirus …; remark: listed apart in the source
[12] = target: T2, F protein of human metapneumovirus …; remark: listed apart in the source
[13] = target: T3, F protein of human metapneumovirus …; remark: listed apart in the source
[14] = target: T4, F protein of human metapneumovirus …; remark: listed apart in the source
[15] = target: T1, F protein of human metapneumovirus …; remark: listed apart in the source

Binder	IC50, neutralizing activity (hMPV infection of LLC-MK2 cells) [1] [µg/mL]	IC50, neutralizing activity (hMPV infection of LLC-MK2 cells) [2] [µg/mL]	IC50, neutralizing activity (hMPV infection of LLC-MK2 cells) [3] [µg/mL]	IC50, neutralizing activity (hMPV infection of LLC-MK2 cells; GraphPad Prism 6) [4] [µg/mL]	IC50, neutralizing activity (hMPV infection of LLC-MK2 cells; GraphPad Prism 6) [5] [µg/mL]	IC50, neutralizing activity (hMPV infection of LLC-MK2 cells; GraphPad Prism 6) [6] [µg/mL]	IC60, neutralizing activity (hMPV infection of LLC-MK2 cells; GraphPad Prism 6) [7] [µg/mL]	IC60, neutralizing activity (hMPV infection of LLC-MK2 cells; GraphPad Prism 6) [8] [µg/mL]	IC60, neutralizing activity (hMPV infection of LLC-MK2 cells; GraphPad Prism 6) [9] [µg/mL]	IC60, neutralizing activity (hMPV infection of LLC-MK2 cells; GraphPad Prism 6) [10] [µg/mL]	IC90, neutralizing activity (hMPV infection of LLC-MK2 cells; GraphPad Prism 6) [11] [µg/mL]	IC90, neutralizing activity (hMPV infection of LLC-MK2 cells; GraphPad Prism 6) [12] [µg/mL]	IC90, neutralizing activity (hMPV infection of LLC-MK2 cells; GraphPad Prism 6) [13] [µg/mL]	IC90, neutralizing activity (hMPV infection of LLC-MK2 cells; GraphPad Prism 6) [14] [µg/mL]	IC50, cell-to-cell spread inhibitory activity (LLC-MK2 cells stably expressing TMPRSS2) [15] [µg/mL]	IC90, cell-to-cell spread inhibitory activity (LLC-MK2 cells stably expressing TMPRSS2) [15] [µg/mL]
EV046115b (antibody, human IgG1, lambda, V domains shown) VH: QVQLVQSGAEVKKPGASVKVSCKASGYTFSVYGISWVRQAPGHGLEWMGWISAYNGDRGYAQKVQGRITMTTDTSASTAYMELRSLTSDDTAVYYCATTSSGVPGIYWGQGSLVTVSS VL: not shown	0.27	0.099	0.29	0.108	0.322	2.28	0.376	0.133	0.4	2.71	2.3	0.345	1.03	5.75	0.135	0.617
EV046130 (antibody, human IgG1, lambda, V domains shown) VH: QVQLVESGGGVAQPGRSLRLSCAASGFTLSNYGMHWVRQAPGKGLEWVAVIWYDGRNKYYADSVKGRFTISRDDFKNTLDLQMNSLRAEDTAVYYCARDQHAGITMIEDWGQGTLVTVSS VL: QSALTQPPSASGSPGQSVTISCTGTSSDVGYFKYVSWYQQHPGKAPKLLIYEVSKRPSGVPDRFSGSRSGNTASLTVSGLQADDEADYYCGSYAGNNNIIFGGGTKLTVLG	0.23	0.089	0.21	0.105	0.22	1.95	0.354	0.132	0.254	2.01	0.714	0.358	0.486	2.3	0.0349	0.147
EV046141 (antibody, human IgG1, lambda, V domains shown) VH: QVQLVQSGAEVKKPGASVKVSCKASGYTFADYYIHWLRQAPGQGLEWLGRINPSNSRTTYPQKFQGRVTVTRDTSTSTVYMELSSLRSADTAVYYCARDGLRMGYYYMDVWGKGTTVTVSS VL: QSVLTQPPSVSGAPGQRVTISCTGSSSNIGAGYDVHWYQQIPGTAPKLLIFGNYNRPSGVPDRFSASKSGTSASLAITGLQAEDEAHYYCQSYDTTLDGAVFGGGTKLTVLG	0.74	0.44	0.2	0.524	0.213	2.11	0.883	0.571	0.276	2.18	2.18	0.836	0.863	2.52	0.0363	0.171
